Reference: patent US20220389465A1, “METHODS OF REDUCING BIURET IN UREA COMPOSITIONS” (Regents of the University of Minnesota, priority 2019, published 2022)

System: T1, NC(=O)NC(N)=O
T1 construct: six-histidine tag (C); made in house; host or cells: Escherichia coli BL21(DE3)
Test: Inhibition of biuret hydrolase by urea, kinetic constants
Type: biochemical

biuret hydrolase (Rhizobium johnstonii 3841), sequence (chain, as listed by the source): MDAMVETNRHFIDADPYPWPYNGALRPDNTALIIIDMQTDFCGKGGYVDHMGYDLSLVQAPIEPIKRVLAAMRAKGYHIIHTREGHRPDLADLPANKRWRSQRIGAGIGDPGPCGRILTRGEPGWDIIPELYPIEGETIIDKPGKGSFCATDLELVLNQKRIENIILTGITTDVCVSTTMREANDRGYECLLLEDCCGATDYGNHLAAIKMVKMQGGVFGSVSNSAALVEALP

Q: With “biuret hydrolase (Rhizobium johnstonii 3841)” as the substance, how does the Km read?
A: 23 µM
